These results are taken from the Human Domainome abundance scans (Beltran et al. 2025).

± gives the uncertainty stated by the source.

B1: CD2-associated protein, residues 271 to 331; numbered along this chain, Q9Y5K6 (parent)
chain: KEYCRTLFAYEGTNEDELTFKEGEIIHLISKETGEAGWWRGELNGKEGVFPDNFAVQINEL

Variants of B1 are the subject of this data set. Briefly: abundance fitness (aPCA) (normalised: wild type 0, dead -1); higher = more abundant; growth selection in yeast, the domain comes from the species named. The settings on record: Homo sapiens.
As to KEYCRTLFAYEGTNEDELTFKEGEIIHLISKETGEAGWWRGELNGAEGVFPDNFAVQINEL, the abundance fitness is -0.134 ± 0.091.

For the variant KEYCRTLFAYEGTNEDELTFKEGEIIHLISKETGEAGWWRGNLNGKEGVFPDNFAVQINEL, the abundance fitness was -0.078 ± 0.24.

Turning to KEYCRTLFAYEGTNEDELTFKEGEIIHLISKETGEAGWWRGMLNGKEGVFPDNFAVQINEL, the abundance fitness was -0.02 ± 0.1.

Consider KEYCRTLFAYEGTNEDELTFKEGEIIHLISKETGEAGWWRGVLNGKEGVFPDNFAVQINEL, for which the abundance fitness was -0.159 ± 0.079.

Regarding KEYCRTLFAYEGTNEDELTFKEGEIIHLISKETGEAGWWRGPLNGKEGVFPDNFAVQINEL, the abundance fitness was -0.981 ± 0.21.

Take KEYCRTLFAYEGTNEDELTFKEGEIIHLISKETGEAGWWRGYLNGKEGVFPDNFAVQINEL: the abundance fitness was -0.567 ± 0.18.

As for KEYCRTLFAYEGTNEDELTFKEGEIIHLISKETGEAGWWRGKLNGKEGVFPDNFAVQINEL, the abundance fitness is -0.011 ± 0.14.

As for KEYCRTLFAYEGTNEDELTFKEGEIIHLISKETGEAGWWRGCLNGKEGVFPDNFAVQINEL, the abundance fitness was -0.201 ± 0.1.

KEYCRTLFAYEGTNEDELTFKEGEIIHLISKETGEAGWWRGFLNGKEGVFPDNFAVQINEL: the abundance fitness was -0.569 ± 0.2.

As for KEYCRTLFAYEGTNEDELTFKEGEIIHLISKETGEAGWWRGDLNGKEGVFPDNFAVQINEL, the abundance fitness is -0.298 ± 0.13.

Turning to KEYCRTLFAYEGTNEDELTFKEGEIIHLISKETGEAGWWRGTLNGKEGVFPDNFAVQINEL, the abundance fitness was -0.185 ± 0.12.

With KEYCRTLFAYEGTNEDELTFKEGEIIHLISKETGEAGWWRGSLNGKEGVFPDNFAVQINEL, the abundance fitness was -0.05 ± 0.073.

Consider KEYCRTLFAYEGTNEDELTFKEGEIIHLISKETGEAGWWRGHLNGKEGVFPDNFAVQINEL, for which the abundance fitness is -0.419 ± 0.13.

As to KEYCRTLFAYEGTNEDELTFKEGEIIHLISKETGEAGWWRGRLNGKEGVFPDNFAVQINEL, the abundance fitness was -0.099 ± 0.066.

In the case of KEYCRTLFAYEGTNEDELTFKEGEIIHLISKETGEAGWWRGILNGKEGVFPDNFAVQINEL, the abundance fitness was -0.026 ± 0.1.

For KEYCRTLFAYEGTNEDELTFKEGEIIHLISKETGEAGWWRGLLNGKEGVFPDNFAVQINEL, the abundance fitness was -0.218 ± 0.082.

In the case of KEYCRTLFAYEGTNEDELTFKEGEIIHLISKETGEAGWWRGALNGKEGVFPDNFAVQINEL, the abundance fitness amounted to 0.006 ± 0.1.

Consider KEYCRTLFAYEGTNEDELTFKEGEIIHLISKETGEAGWWRGWLNGKEGVFPDNFAVQINEL, for which the abundance fitness was -0.313 ± 0.1.

Consider KEYCRTLFAYEGTNEDELTFKEGEIIHLISKETGEAGWWRGQLNGKEGVFPDNFAVQINEL, for which the abundance fitness was -0.12 ± 0.11.

With KEYCRTLFAYEGTNEDELTFKEGEIIHLISKETGEAGWWRGEYNGKEGVFPDNFAVQINEL, the abundance fitness is -0.294 ± 0.13.

On to KEYCRTLFAYEGTNEDELTFKEGEIIHLISKETGEAGWWRGERNGKEGVFPDNFAVQINEL, for which the abundance fitness is -0.214 ± 0.072.

Turning to KEYCRTLFAYEGTNEDELTFKEGEIIHLISKETGEAGWWRGEKNGKEGVFPDNFAVQINEL, the abundance fitness is -0.156 ± 0.073.

With KEYCRTLFAYEGTNEDELTFKEGEIIHLISKETGEAGWWRGESNGKEGVFPDNFAVQINEL, the abundance fitness is -0.411 ± 0.071.

As to KEYCRTLFAYEGTNEDELTFKEGEIIHLISKETGEAGWWRGEENGKEGVFPDNFAVQINEL, the abundance fitness is -0.703 ± 0.14.

As for KEYCRTLFAYEGTNEDELTFKEGEIIHLISKETGEAGWWRGEVNGKEGVFPDNFAVQINEL, the abundance fitness is -0.308 ± 0.078.

For KEYCRTLFAYEGTNEDELTFKEGEIIHLISKETGEAGWWRGENNGKEGVFPDNFAVQINEL, the abundance fitness is -0.468 ± 0.17.

In the case of KEYCRTLFAYEGTNEDELTFKEGEIIHLISKETGEAGWWRGECNGKEGVFPDNFAVQINEL, the abundance fitness is -0.26 ± 0.16.

For the variant KEYCRTLFAYEGTNEDELTFKEGEIIHLISKETGEAGWWRGEINGKEGVFPDNFAVQINEL, the abundance fitness is -0.004 ± 0.14.

As for KEYCRTLFAYEGTNEDELTFKEGEIIHLISKETGEAGWWRGETNGKEGVFPDNFAVQINEL, the abundance fitness is -0.505 ± 0.096.

In the case of KEYCRTLFAYEGTNEDELTFKEGEIIHLISKETGEAGWWRGEHNGKEGVFPDNFAVQINEL, the abundance fitness was -0.522 ± 0.25.

As to KEYCRTLFAYEGTNEDELTFKEGEIIHLISKETGEAGWWRGEFNGKEGVFPDNFAVQINEL, the abundance fitness is -0.475 ± 0.091.

On to KEYCRTLFAYEGTNEDELTFKEGEIIHLISKETGEAGWWRGEQNGKEGVFPDNFAVQINEL, for which the abundance fitness was -0.682 ± 0.13.

KEYCRTLFAYEGTNEDELTFKEGEIIHLISKETGEAGWWRGEWNGKEGVFPDNFAVQINEL: the abundance fitness was -0.605 ± 0.14.

With KEYCRTLFAYEGTNEDELTFKEGEIIHLISKETGEAGWWRGEANGKEGVFPDNFAVQINEL, the abundance fitness was -0.285 ± 0.062.

As for KEYCRTLFAYEGTNEDELTFKEGEIIHLISKETGEAGWWRGEDNGKEGVFPDNFAVQINEL, the abundance fitness was -0.458 ± 0.18.

On to KEYCRTLFAYEGTNEDELTFKEGEIIHLISKETGEAGWWRGEPNGKEGVFPDNFAVQINEL, for which the abundance fitness is -0.701 ± 0.2.

With KEYCRTLFAYEGTNEDELTFKEGEIIHLISKETGEAGWWRGEGNGKEGVFPDNFAVQINEL, the abundance fitness is -0.766 ± 0.13.

With KEYCRTLFAYEGTNEDELTFKEGEIIHLISKETGEAGWWRGEMNGKEGVFPDNFAVQINEL, the abundance fitness was -0.219 ± 0.065.

KEYCRTLFAYEGTNEDELTFKEGEIIHLISKETGEAGWWRPELNGKEGVFPDNFAVQINEL: the abundance fitness is -0.605 ± 0.19.

On to KEYCRTLFAYEGTNEDELTFKEGEIIHLISKETGEAGWWRWELNGKEGVFPDNFAVQINEL, for which the abundance fitness is -1.14 ± 0.29.

Take KEYCRTLFAYEGTNEDELTFKEGEIIHLISKETGEAGWWRLELNGKEGVFPDNFAVQINEL: the abundance fitness is -0.747 ± 0.07.

As to KEYCRTLFAYEGTNEDELTFKEGEIIHLISKETGEAGWWRTELNGKEGVFPDNFAVQINEL, the abundance fitness is -0.636 ± 0.1.

KEYCRTLFAYEGTNEDELTFKEGEIIHLISKETGEAGWWRYELNGKEGVFPDNFAVQINEL: the abundance fitness was -0.938 ± 0.23.
